Assays:
[1] = molecular target: histones; experiment: AtheNA Multi-Lyte ANA, Ab at 50 ug/ml
[2] = molecular target: sclerosis autoantigen (Scl-70) (UniProt P11387); experiment: AtheNA Multi-Lyte ANA, Ab at 50 ug/ml
[3] = molecular target: histones; experiment: AtheNA Multi-Lyte ANA, Ab at 12.5 ug/ml
[4] = molecular target: sclerosis autoantigen (Scl-70) (UniProt P11387); experiment: AtheNA Multi-Lyte ANA, Ab at 12.5 ug/ml
[5] = molecular target: histones; experiment: AtheNA Multi-Lyte ANA, Ab at 6.25 ug/ml
[6] = molecular target: sclerosis autoantigen (Scl-70) (UniProt P11387); experiment: AtheNA Multi-Lyte ANA, Ab at 6.25 ug/ml
[7] = molecular target: histones; experiment: AtheNA Multi-Lyte ANA, Ab at 25 ug/ml
[8] = molecular target: histones; experiment: AtheNA Multi-Lyte ANA, Ab at 28.3 ug/ml
[9] = molecular target: histones; experiment: AtheNA Multi-Lyte ANA, Ab at 3.538 ug/ml
[10] = molecular target: histones; experiment: AtheNA Multi-Lyte ANA, Ab at 7.075 ug/ml
[11] = molecular target: histones; experiment: AtheNA Multi-Lyte ANA, Ab at 16.7 ug/ml
[12] = molecular target: histones; experiment: AtheNA Multi-Lyte ANA, Ab at 8.35 ug/ml
[13] = molecular target: histones; experiment: AtheNA Multi-Lyte ANA, Ab at 2.088 ug/ml
[14] = molecular target: histones; experiment: AtheNA Multi-Lyte ANA, Ab at 4.175 ug/ml

sclerosis autoantigen (Scl-70), sequence (P11387 2-765 limits assumed): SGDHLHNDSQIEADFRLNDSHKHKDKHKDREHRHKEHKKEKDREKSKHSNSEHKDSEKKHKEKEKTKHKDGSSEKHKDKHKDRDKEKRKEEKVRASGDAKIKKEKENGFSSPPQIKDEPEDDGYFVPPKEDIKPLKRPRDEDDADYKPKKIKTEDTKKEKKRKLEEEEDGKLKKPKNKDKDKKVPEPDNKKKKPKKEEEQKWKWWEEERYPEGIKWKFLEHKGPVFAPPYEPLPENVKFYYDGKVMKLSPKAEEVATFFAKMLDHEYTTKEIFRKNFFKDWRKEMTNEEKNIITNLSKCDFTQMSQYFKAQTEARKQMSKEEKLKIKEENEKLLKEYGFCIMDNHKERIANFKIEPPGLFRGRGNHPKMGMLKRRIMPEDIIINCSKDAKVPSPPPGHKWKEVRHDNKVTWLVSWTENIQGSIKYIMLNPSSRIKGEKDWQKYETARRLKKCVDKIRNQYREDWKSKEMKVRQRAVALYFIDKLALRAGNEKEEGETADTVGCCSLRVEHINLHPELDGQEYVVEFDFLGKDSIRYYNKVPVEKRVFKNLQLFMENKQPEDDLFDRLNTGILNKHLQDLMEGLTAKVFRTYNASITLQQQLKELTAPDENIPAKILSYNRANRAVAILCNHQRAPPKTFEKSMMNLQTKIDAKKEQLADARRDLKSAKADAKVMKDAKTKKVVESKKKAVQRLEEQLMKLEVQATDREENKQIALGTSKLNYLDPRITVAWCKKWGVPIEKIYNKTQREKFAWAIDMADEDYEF

AtheNA signal [1] | AtheNA signal [3] | AtheNA signal [5] | Binder | other results
90 | 60 | 44 | Ab7955 (antibody, V domains shown) VH: LVESGGGVVRPGRSLRLSCVASGFTFNAYGMHWVRQGPGKGLEWLAVISYEGKTVYYADSVKDRFTISRDNSRNTVSLHLNNLRGEDTAVYYCAKGSASAAVLQHWGQGTLVSVTS VL: MTQSPGSLAVSLGSRATINCKSSRSLLYRSNNKNYLAWYQQKPGQSPRLLIYWASSRESGVPDRFSGGGSGTSFTLTISSLQAEDVAVYYCQQYFNPPWTFGQGTKVEIK | AtheNA signal [2]: 8; AtheNA signal [4]: 3; AtheNA signal [6]: 2
4 | 1 | 3 | Ab7962/293i (antibody, V domains shown) VH: LVESGGGLVQPGGSLRLSCAASGFTFSSYEMNWVRQAPGKGLEWVSYISSSGSTIYYADSVKGRFTISRDNAKNSLYLQMNSLRAEDTAVYYCARVEQLAPSPYMDVWGKGTTVTVSS VL: MTQSLDSLTVSLGERATINCKSSQSLLYTSNNKNYLAWYQQKSGQPPKLLIYWASIRDSGVPDRFSGSGSATDFTLTINNLQAEDVAVYFCQQYYKTPLTFGGGTKVEVR | –
15 | 8 | 6 | Ab7957/293i (antibody, IgG1, V domains shown) VH: LVESGGGVVPPGKSLRLSCAASGFTFSLYGIHWVRQAPGKGLEWVAVISYDGNTKYYTDSVKGRFTISRDNAKNTIYLQMNSLRLDDTAVYYCAKGAANSATFDFWGRGTMVTVSS VL: MTQSPDSLTLSLGERATINCRSSRTVLYRSNNKNYLAWYQHKPGQPPKLLMSWASTRETGVPDRFSGSGSGTHFTLTITSLQPEDVAVYYCQQYYSPPWTFGQGTKVEIR | AtheNA signal [7]: 9
– | – | – | Ab7970 (antibody, IgG1, V domains shown) VH: LVESGGGVVQPGRSLRLSCAASGLTFSFYNFHWVRQTPGKGLEWVAGISYDATRTNYAGSVTGRFTISRDNSKKMLYLQMSSLGPQDTAVYHCARDRSDGQLHKVAFDSWGQGALVTVSS VL: MTQSPDSLTLSLGERATINCRSSRTVLYRSNNKNYLAWYQHKPGQPPKLLMSWASTRETGVPDRFSGSGSGTHFTLTITSLQPEDVAVYYCQQYYSPPWTFGQGTKVEIR | AtheNA signal [8]: 131; AtheNA signal [9]: 86; AtheNA signal [10]: 115
31 | 26 | 18 | Ab7960/293i (antibody, IgG1, V domains shown) VH: LVESGGGVVQPGKSLRLSCVASGFSFSTYGMHWVRQAPGKGLEWVAVMSFDGKTKYYADSVKGRFTISRDNPKNTLYLQMNSLRSEDTAVYYCAKGGAAAAVFDSWGPGILLTVSS VL: MTQSPNSLAVSLGGRATINCKASQSILYRSNNKNYLAWYQHKAGQPPKLLIYWASTRESGVPERFSGSGSRTDFTLTINGLQAEDVAVYYCQQYYNPPWTFGQGTKVEIK | –
77 | 69 | 62 | Ab7961/293i (antibody, IgG1, V domains shown) VH: LVESGGGVVQPGKSLRLSCVASGFTFSSYGMHWVRQAPGKGLEWVAVMSFDGKTKYYADSVKGRFTISRDNPKNTLYLQMNSLRSEDTAVYYCAKGGAAAAVFDSWGQGILLTVSS VL: MTQSPNSLAVSLGGRATINCKTSQSILYRSNNKNYLAWYQHKSGQPPKLLIYWASTRESGVPDRFSGSGSRTDFTLTISGLQAEDVAVYYCQQYYNPPWTFGQGTKVEIK | AtheNA signal [7]: 77
– | – | – | Ab7979 (antibody, IgG1, V domains shown) VH: LVESGGGVVQPGKSLRLSCVASGFTFSTYGMHWVRQAPGKGLEWVAVMSFDGKTKYYADSVKGRFTISRDNPKNTLYLQMNSLRSEDTAVYYCAKGGAAAAVFDSWGQGILLTVSS VL: MTQSPNSLAVSLGGRATINCKTSQSILYRSNNKNYLAWYQHKPGQPPKLLIYWASTRESRVPDRFSGSGSRTDFTLTISGLQAEDVAVYYCQQYYNPPWTFGQGTKVEIK | AtheNA signal [11]: 100; AtheNA signal [12]: 114; AtheNA signal [13]: 93; AtheNA signal [14]: 114

Reference: patent US20190315842A1
